This note sets out measurements from US8889408B2, “Factor taking part in transcription control” (Sony Corporation, priority 2002, dated 2014).

In the experiment the test system is Gal4 reporter plasmid (pGal4-Luciferase). Put plainly: Gal4 reporter (luciferase) promoter repression in NIH3T3 cells. In kind it is cell-based. From the text:
Assuming that HDART takes part in more direct inhibition, it is expected that it has an autonomous repression function. To confirm the above expectation, in order that HDART can bind to DNA the full-length HDART cDNA was fused to Gal4 DNA binding region (GAL4DBD: a region having only a binding region with GAL4DNA and lacking a transcription control region) to analyze whether the transcription from the GAL4A promoter could be regulated within NIH3T3 cells.
More particularly, a Gal4 DBD-HDART plasmid capable of expressing a full-length HDART and Gal4 DBD fused protein was transfected in different amounts (0, 0.1, 0.3, and 0.5 μg) into NIH3T3 cells previously prepared to contain Gal4 reporter plasmid (pGal4-Luciferase). It should be noted that in order to make a uniform total amount of DNA used for the transfection, the amount of an expression vector was equalized to 0.5 μg by adding the appropriate amount of a vacant vector of Gal4 DBD in each transfection. 24 hours after the transfection, the expression activity (Luciferase activity) of reporter genes from the promoter was analyzed. The luciferase activity for each sample is indicated as a corrected value based on the luciferase activity obtained by introduction of a vacant vector alone as a reference (100%) (FIG. 8). It will be noted that the results of the analysis were indicated as an average of the results of three experiments, and a standard deviation is indicated as an error bar (FIG. 8A). Similar analyses were made using a different type of cell, U-205 cell, with Gal4 DBD-HDART (in an amount of 0 or 0.5 μg) (FIG. 8B).

B1: HDART: HDAC associated repressor TPR protein, 855 amino acids, SEQ ID NO: 2; transcription repressing factor, used as fusions or expressed from vector (protein, listed as Homo sapiens)
chain: MVVMARLSRPERPDLVFEEEDLPYEEEIMRNQFSVKCWLRYIEFKQGAPKPRLNQLYERALKLLPCSYKLWYRYLKARRAQVKHRCVTDPAYEDVNNCHERAFVFMHKMPRLWLDYCQFLMDQGRVTHTRRTFDRALRALPITQHSRIWPLYLRFLRSHPLPETAVRGYRRFLKLSPESAEEYIEYLKSSDRLDEAAQRLATVVNDERFVSKAGKSNYQLWHELCDLISQNPDKVQSLNVDAIIRGGLTRFTDQLGKLWCSLADYYIRSGHFEKARDVYEEAIRTVMTVRDFTQVFDSYAQFEESMIAAKMETASELGREEEDDVDLELRLARFEQLISRRPLLLNSVLLRQNPHHVHEWHKRVALHQGRPREIINTYTEAVQTVDPFKATGKPHTLWVAFAKFYEDNGQLDDARVILEKATKVNFKQVDDLASVWCQCGELELRHENYDEALRLLRKATALPARRAEYFDGSEPVQNRVYKSLKVWSMLADLEESLGTFQSTKAVYDRILDLRIATPQIVINYAMFLEEHKYFEESFKAYERGISLFKWPNVSDIWSTYLTKFIARYGGRKLERARDLFEQALDGCPPKYAKTLYLLYAQLEEEWGLARHAMAVYERATRAVEPAQQYDMFNIYIKRAAEIYGVTHTRGIYQKAIEVLSDEHAREMCLRFADMECKLGEIDRARAIYSFCSQICDPRTTGAFWQTWKDFEVRHGNEDTIKEMLRIRRSVQATYNTQVNFMASQMLKVSGSATGTVSDLAPGQSGMDDMKLLEQRAEQLAAEAERDQPLRAQSKILFVRSDASREELAELAQQVNPEEIQLGEDEDEDEMDLEPNEVRLEQQSVPAAVFGSLKED
Turning to B1, under “Gal4 DBD-HDART plasmid 0, 0.1, 0.3, 0.5 μg, NIH-3T3 cells”, the promoter activity result is “significantly inhibits”. Moreover, the “lowering of the expression of luciferase” value (Gal4 DBD-HDART plasmid, highest concentration 0.5 μg, NIH-3T3 cells, 24 hours after transfection, vacant vector = 100%) is 80%. Besides, for the setting “HDART not having a GAL4 DNA binding region”, the “expression inhibition of luciferase” value was “not observed”.
